This passage reports Kd results from doi:10.1101/2025.08.25.672131, “A basic leucine zipper uses a dimer pathway to locate its targets in DNA mixtures”.

The Kd is the concentration at which binding is half-saturated.

One series addresses T1, Jun bZIP-ΔLZ (human, UniProt P05412 246-284).
T1 chain: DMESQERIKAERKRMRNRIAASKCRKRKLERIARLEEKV
In words: fluorescence anisotropy; monomer; Stopped-flow at 25 C; assay buffer not stated in the material (protein storage: 10 mM MES pH 6.5 or, for the forced-monomer bZIP-ΔLZ prep, 10 mM HEPES pH 7.4, with 150 mM NaCl, 10 mM MgCl2; 0.05% Tween-20 in the MES buffer). To be noted: protein: recombinant; tags: N-terminal G left after TEV cleavage; label: 5' Alexa Fluor 488; blunt. For orientation: In fluorescence polarisation assays a small probe gives low polarisation when free and higher when bound to something large.

The next series has as its target T2, CREB-bZIP-ΔLZ (human, UniProt P16220-1 277-315, C300S;C310S).
T2 chain: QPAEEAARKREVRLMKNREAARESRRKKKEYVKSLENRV
Described as above. As to conditions: protein: recombinant; tags: N-terminal G left after TEV cleavage; label: 5' Alexa Fluor 488; blunt.

B1: Alexa Fluor 488 target for Jun, JunD, Fos (dsDNA)
DNA 1: GGATGAGTCATTGG
DNA 2: CCAATGACTCATCC
For the molecule B1, in the series with Jun bZIP-ΔLZ, the Kd is 0.22 ± 0.03 µM.

B2: Alexa Fluor 488-Comp (dsDNA)
DNA 1: GGCTAAAGCATTCT
DNA 2: AGAATGCTTTAGCC
Regarding B2, the Kd in the series with CREB-bZIP-ΔLZ came out at 440 ± 30 µM.
